Test results from patent US20250257130A1 (NONA BIOSCIENCES SUZHOU, published 2025).

B1: PR000374 (antibody, human IgG1, kappa, V domains shown)
VH: EVQLVESGGGLVQPGRSLRLSCTASGSDINDYPITWVRQAPGQGLEWIGFINSGGSTWYASWVKGRFTISRDDSKSIAYLQMNSLKTEDTAVYYCARGYSTYYRDFNIWGQGTLVTVSS
VL: DIQMTQSPSSLSASVGDRVTINCQASQSIDSNLAWFQQKPGQPPKLLIYRASNLASGVPDRFSGSGSGTDFTLTISSLEAEDVATYYCLGGVGAVSYRTSFGGGTKVEIKR
notes: positive control; also called Bench marker 1
B2: PR303125 (antibody, human IgG1, V domains shown)
VH: EVQLLESGGGLVQPGGSLRLSCAASGFTFSSHAMSWVRQAPGKGLEWVSAISGSGDSTHYAASVKGRFTISRDNSKNTLYLQMNSLRAEDTAVYYCETLLRFLESLGNDGFKIWGQGTMVTVSS
notes: HCAb (heavy chain-only, human IgG1 Fc), no light chain
B3: PR303191 (antibody, human IgG1, V domains shown)
VH: EVQLLESGGGLVQPGGSLRLSCAASGFIFGSYAMSWVRQAPGKGLEWVSGISGTGGNTYYADSVKGRFTISRDNSKNTLYLQMNSLRAEDTAVYFCERGITIHGVVIIPPDYRGQGTLVTVSS
notes: as for B2

Target: T1, human ROR1 on cells (HEK293T-hROR1, PANC-1, A549) (human, UniProt Q01973 30-937)
T1 construct: whole, on cells; one molecule for the three cell lines; also called huROR1; cell surface ROR1
Test: flow cytometry, A549 cells
Experimental: (§1) In brief, anti-ROR1 antibodies were serially diluted in staining buffer (PBS containing 2% FBS). Antibody solution was incubated with 1×10⁵ cells at 4° C. for 1 hour. […] After 1-hour incubation at 4° C., cells were washed twice with staining buffer and subjected to flow cytometry. PR000374 (Bench marker 1) and non-relevant IgG isotype control (Crownbio) were used as positive and negative controls, respectively.

T1 sequence (Q01973 30-937): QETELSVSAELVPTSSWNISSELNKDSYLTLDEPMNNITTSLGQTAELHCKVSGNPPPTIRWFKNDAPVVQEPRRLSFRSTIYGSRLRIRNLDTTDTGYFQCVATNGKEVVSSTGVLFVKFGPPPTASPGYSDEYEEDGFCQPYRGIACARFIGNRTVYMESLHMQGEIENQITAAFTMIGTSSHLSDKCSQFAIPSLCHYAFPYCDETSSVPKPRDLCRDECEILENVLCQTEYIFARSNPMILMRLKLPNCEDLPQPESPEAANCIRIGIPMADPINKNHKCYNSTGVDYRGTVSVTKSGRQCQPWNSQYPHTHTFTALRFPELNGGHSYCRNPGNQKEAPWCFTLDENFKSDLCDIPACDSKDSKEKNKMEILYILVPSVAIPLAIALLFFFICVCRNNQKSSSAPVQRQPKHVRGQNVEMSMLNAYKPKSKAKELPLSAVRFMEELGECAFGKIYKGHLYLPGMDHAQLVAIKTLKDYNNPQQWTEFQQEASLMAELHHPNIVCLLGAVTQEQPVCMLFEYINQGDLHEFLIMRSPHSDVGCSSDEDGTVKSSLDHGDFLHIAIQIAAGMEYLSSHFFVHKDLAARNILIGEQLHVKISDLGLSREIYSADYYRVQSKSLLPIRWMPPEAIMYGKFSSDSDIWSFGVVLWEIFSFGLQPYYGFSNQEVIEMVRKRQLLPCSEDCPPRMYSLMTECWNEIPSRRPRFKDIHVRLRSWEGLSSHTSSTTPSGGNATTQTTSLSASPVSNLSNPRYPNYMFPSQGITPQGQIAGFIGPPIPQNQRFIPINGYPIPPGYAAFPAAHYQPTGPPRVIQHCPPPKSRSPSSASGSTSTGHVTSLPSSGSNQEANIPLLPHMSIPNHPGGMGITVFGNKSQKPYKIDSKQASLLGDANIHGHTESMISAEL

| EC50 [µg/mL] | MAX(MFI) | Binder |
| --- | --- | --- |
| 0.61 | 695000 | B1 |
| 0.16 | 668000 | B2 |
| 0.01 | 650000 | B3 |

Target: T2, Human ROR1-ECD-his (Acro Biosystems RO1-H522y) (human, UniProt Q01973 30-406)
T2 construct: extracellular domain; bought protein; also called hROR1-ECD-his; hu-ROR1-ECD-his
Test: ELISA, coated hu-ROR1-ECD-his

T2 sequence (Q01973 30-406): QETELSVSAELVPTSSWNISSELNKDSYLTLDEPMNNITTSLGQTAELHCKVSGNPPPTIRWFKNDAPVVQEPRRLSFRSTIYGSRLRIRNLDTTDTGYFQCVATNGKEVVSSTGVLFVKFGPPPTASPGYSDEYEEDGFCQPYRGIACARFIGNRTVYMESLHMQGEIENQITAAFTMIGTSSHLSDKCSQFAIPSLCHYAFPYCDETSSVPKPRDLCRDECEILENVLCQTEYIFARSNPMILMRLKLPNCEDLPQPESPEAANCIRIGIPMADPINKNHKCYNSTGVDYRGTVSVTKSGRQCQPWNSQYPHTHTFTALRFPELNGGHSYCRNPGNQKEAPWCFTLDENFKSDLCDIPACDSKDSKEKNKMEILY

| EC50 [µg/mL] | Binder |
| --- | --- |
| 0.001 | B1 |
| 0.002 | B2 |
| 0.001 | B3 |

Target: T1, human ROR1 on cells (HEK293T-hROR1, …)
Test: flow cytometry, HEK293T-hROR1 cells
Experimental: as §1

| EC50 [µg/mL] | MAX(MFI) | Binder |
| --- | --- | --- |
| 0.506 | 1.49e+07 | B1 |
| 0.273 | 1.5e+07 | B2 |
| 0.044 | 1.4e+07 | B3 |

Target: T3, cynomolgus ROR1 on CHO-K1-cynoROR1 cells (cynomolgus monkey, UniProt A0A2K5WTX7 30-937)
T3 construct: whole, on cells
Test: flow cytometry, CHO-K1-cynoROR1 cells
Experimental: as §1

| EC50 [µg/mL] | MAX(MFI) | Binder |
| --- | --- | --- |
| 0.314 | 1.05e+07 | B1 |
| 0.222 | 8.27e+06 | B2 |
| 0.03 | 9.24e+06 | B3 |

Target: T2, Human ROR1-ECD-his (Acro Biosystems …)
Test: ELISA, plate coated with hu-ROR1-his at 1 µg/mL
Experimental: Binding of recombinant anti-ROR1 antibodies to hu-ROR1-ECD-his was tested by ELISA. In brief, 1 μg/mL hu-ROR1-ECD-his was added to the 96-well plate, 100 μL each well, incubated at 4° C. overnight, washing the plates with 1×PBST 3 times, 300 ul/well, blocking the plates with 2% BSA in 1×PBST, 200 ul/well at 37° C. for 1 hour, anti-ROR1 antibodies were serially diluted in staining buffer (PBS containing 2% BSA). Antibody solution was added to the plate and incubates at 37° C. for 1 hour, washing the plates with 1×PBST 3 times, 300 ul/well, adding secondary antibody 100 ul/well and incubate at 37° C. for 1 hour, washing the plates with 1×PBST 3 times, 300 ul/well and then add 100 ul/well TMB for about 5 min, stop the reaction by adding 100 ul/well 2M H₂SO₄, read the plates with Molecular device spectra max plus384 at 450 nm and 570 nm.

| EC50 (read off the curve) [µg/mL] | Binder |
| --- | --- |
| ~0.0008 | B1 |
| ~0.002 | B2 |
| ~0.0007 | B3 |

Target: T1, human ROR1 on cells (HEK293T-hROR1, …)
Test: flow cytometry on HEK293T-hROR1 cells, MFI (Mean)
Experimental: (§2) Binding of recombinant anti-ROR1 antibodies to human or cynomolgus ROR1-overexpressing cells was tested by flow cytometry. In this example, ROR1-expressing cell lines are HEK293T cell lines that had been transfected to express human ROR1 on the surface (HEK293T-hu ROR1, KYINNO BIOTECHNOLOGY CO., LTD, Catalog #KC-1018), CHO-K1 cell lines that had been transfected to express cynomolgus ROR1 (CHOK1-cyno ROR1), PANC-1 (ATCC, catalog: CRL-1469) or A549 cell lines (Shanghai Institute of Biochemistry and Cell Biology, Chinese Academy of Sciences).
as §1

| EC50 (read off the curve) [µg/mL] | Binder |
| --- | --- |
| ~0.5 | B1 |
| ~0.3 | B2 |
| ~0.04 | B3 |

Target: T2, Human ROR1-ECD-his (Acro Biosystems …)
Test: BLI in-tandem competition; competitor: PR000374
Description: (§3) To determine if anti-ROR1 antibodies bind to human ROR1 on different or approximate binding epitopes, the ForteBio Octet® RED96e platform was used to perform epitope competition experiments on the anti-ROR1 antibodies. Human ROR1 protein (Acrobiosystems, #RO1-H522y) was biotinylated and then captured onto SA biosensors (ForteBio, #18-5020) to reach loading level of 0.3-0.4 nm. The in-tandem competition assay format was applied and it contains two association steps. Firstly, the antigen-loaded biosensors bind to each antibody (a.k.a, First antibody, 1st Ab) with a saturating concentration of 200 nM for 180 seconds to reach equilibrium and then secondly bind to the competing antibodies (a.k.a, Second antibody, 2nd Ab) of 200 nM for 180 seconds. The second binding signals were recorded as the 100% signal of each antibody when the first antibodies were replaced by kinetics buffer. All the binding data were analyzed using ForteBio Data Analysis 11.0 software. The inhibition rate is calculated by the following formula: […]

| Inhibition (%) | Binder |
| --- | --- |
| 109 | B1 |
| -24 | B2 |
| -38 | B3 |

Target: T2, Human ROR1-ECD-his (Acro Biosystems …)
Test: BLI in-tandem competition; competitor: PR303145
Description: as §3

| Inhibition (%) | Binder |
| --- | --- |
| -61 | B1 |
| -41 | B2 |
| -70 | B3 |

Target: T2, Human ROR1-ECD-his (Acro Biosystems …)
Test: BLI in-tandem competition; competitor: PR303147
Description: as §3

| Inhibition (%) | Binder |
| --- | --- |
| -72 | B1 |
| -88 | B2 |
| -60 | B3 |

Target: T2, Human ROR1-ECD-his (Acro Biosystems …)
Test: BLI in-tandem competition; competitor: PR303155
Description: as §3

| Inhibition (%) | Binder |
| --- | --- |
| -67 | B1 |
| -62 | B2 |
| -62 | B3 |

Target: T2, Human ROR1-ECD-his (Acro Biosystems …)
Test: BLI in-tandem competition; competitor: PR303189
Description: as §3

| Inhibition (%) | Binder |
| --- | --- |
| -52 | B1 |
| -24 | B2 |
| -99 | B3 |

Target: T2, Human ROR1-ECD-his (Acro Biosystems …)
Test: BLI in-tandem competition; competitor: PR303191
Description: as §3

| Inhibition (%) | Binder |
| --- | --- |
| -34 | B1 |
| 109 | B2 |
| 80 | B3 |

Target: T2, Human ROR1-ECD-his (Acro Biosystems …)
Test: BLI in-tandem competition; competitor: PR303199
Description: as §3

| Inhibition (%) | Binder |
| --- | --- |
| -61 | B1 |
| -48 | B2 |
| -57 | B3 |

Target: T2, Human ROR1-ECD-his (Acro Biosystems …)
Test: BLI in-tandem competition; competitor: PR303201
Description: as §3

| Inhibition (%) | Binder |
| --- | --- |
| -63 | B1 |
| 86 | B2 |
| 57 | B3 |

Target: T3, cynomolgus ROR1 on CHO-K1-cynoROR1 cells
Test: flow cytometry on CHOK1-cynoROR1 cells, MFI (Mean) [bottom panel, letter not given]
Experimental: as §2, §1

| EC50 (read off the curve) [µg/mL] | Binder |
| --- | --- |
| ~0.3 | B1 |
| ~0.2 | B2 |
| ~0.03 | B3 |
